This passage reports IC50 results from the Immune Epitope Database (IEDB).

The target of one assay is HLA-A*02:02. As to the kind of experiment: IEDB peptide-MHC binding, cellular MHC/competitive/fluorescence; ≥ and ≤ were set here for values at or beyond the usual limits of such assays.
A further assay deals with HLA-A*02:03. Described as above.
The target in another assay is HLA-A*02:06. The assay is described as above.
The target in a further assay is HLA-A*68:02. The assay is described as above.
Assay [1] has as its target HLA-A*02:01. Described as above.
In assay [2] the target is HLA-A*02:01. Briefly: IEDB peptide-MHC binding, purified MHC/competitive/radioactivity; ≥ and ≤ were set here for values at or beyond the usual limits of such assays. As to conditions: source organism: Vaccinia virus WR.
[3] abbreviates: source organism: Influenza A virus.
The mark [4] stands for this setting: source organism: Vaccinia virus WR.

A value given as a limit tells only on which side of the number the result lay.

A word on the IC50: it is the midpoint of a concentration-inhibition curve. As to AVPNGTLV, the IC50 with HLA-A*02:02 (setting [3]) was 10.8 µM; with HLA-A*02:03 (setting [3]) it was at least 70 µM; with HLA-A*02:06 (setting [3]), 10.6 µM; with HLA-A*68:02 (setting [3]), 42.9 µM; with HLA-A*02:01 [1] (setting [3]) it was at least 70 µM.

Consider AVSVYGAIT, for which the IC50 in the assay with HLA-A*02:02 (setting [4]) turned out to be 11.4 µM; with HLA-A*02:03 (setting [4]), 9.62 µM; with HLA-A*02:06 (setting [4]), 14.2 µM; in the assay with HLA-A*68:02 (setting [4]), 6.28 µM; with HLA-A*02:01 [1] (setting [4]), 7.23 µM.

On to CLEAKTHFST, for which the IC50 in the assay with HLA-A*02:02 (setting [4]) was 12.4 µM; with HLA-A*02:03 (setting [4]), 11.1 µM; with HLA-A*02:06 (setting [4]), at least 70 µM; with HLA-A*68:02 (setting [4]), at least 70 µM; with HLA-A*02:01 [1] (setting [4]), 49.7 µM.

On to CTEETKRNIA, for which the IC50 was at least 70 µM with HLA-A*02:02 (setting [4]); 50.1 µM with HLA-A*02:03 (setting [4]); at least 70 µM in the assay with HLA-A*02:06 (setting [4]); 15.2 µM with HLA-A*68:02 (setting [4]); at least 70 µM in the assay with HLA-A*02:01 [1] (setting [4]).

CVRLNNPVIL: the IC50 is 8.56 µM in the assay with HLA-A*02:02 (setting [4]); 5.4 µM with HLA-A*02:03 (setting [4]); 45.1 µM with HLA-A*02:06 (setting [4]); at least 70 µM with HLA-A*68:02 (setting [4]); 13.4 µM with HLA-A*02:01 [1] (setting [4]).

CVRNLEELTT: the IC50 amounted to 12.6 µM with HLA-A*02:02 (setting [4]); 15.2 µM with HLA-A*02:03 (setting [4]); 43 µM with HLA-A*02:06 (setting [4]); 33.1 µM with HLA-A*68:02 (setting [4]); 45.2 µM with HLA-A*02:01 [1] (setting [4]).

With DAKRNSKSL, the IC50 with HLA-A*02:02 (setting [4]) is 13.7 µM; in the assay with HLA-A*02:03 (setting [4]), 49.7 µM; with HLA-A*02:06 (setting [4]), at least 70 µM; with HLA-A*68:02 (setting [4]), at least 70 µM; in the assay with HLA-A*02:01 [1] (setting [4]) it was at least 70 µM.

Take DIDLLFNEKL: the IC50 was determined as 11.2 µM in the assay with HLA-A*02:02 (setting [4]); 26.7 µM in the assay with HLA-A*02:03 (setting [4]); 25.7 µM with HLA-A*02:06 (setting [4]); 15.8 µM with HLA-A*68:02 (setting [4]); 5.79 µM with HLA-A*02:01 [1] (setting [4]).

DILQMREIIT: the IC50 in the assay with HLA-A*02:02 (setting [4]) worked out at 45.5 µM; with HLA-A*02:03 (setting [4]) it was 56.2 µM; with HLA-A*02:06 (setting [4]), 17.7 µM; with HLA-A*68:02 (setting [4]) it was 20.3 µM; with HLA-A*02:01 [1] (setting [4]) it was 31.1 µM.

For DIMLPESDL, the IC50 worked out at 18.5 µM with HLA-A*02:02 (setting [4]); 35.8 µM with HLA-A*02:03 (setting [4]); 31.6 µM with HLA-A*02:06 (setting [4]); 13.4 µM with HLA-A*68:02 (setting [4]); 12.9 µM in the assay with HLA-A*02:01 [1] (setting [4]).

DISVNASKTI: the IC50 is 46.8 µM in the assay with HLA-A*02:02 (setting [4]); 11.9 µM in the assay with HLA-A*02:03 (setting [4]); at least 70 µM with HLA-A*02:06 (setting [4]); 14.5 µM with HLA-A*68:02 (setting [4]); 14.7 µM with HLA-A*02:01 [1] (setting [4]).

On to DIVSDSKKIM, for which the IC50 with HLA-A*02:02 (setting [4]) is 25.1 µM; with HLA-A*02:03 (setting [4]), 57.2 µM; with HLA-A*02:06 (setting [4]) it was at least 70 µM; with HLA-A*68:02 (setting [4]), at least 70 µM; with HLA-A*02:01 [1] (setting [4]) it was 64.6 µM.

In the case of DLAIKQYGDI, the IC50 was 17.9 µM in the assay with HLA-A*02:02 (setting [4]); 33.3 µM in the assay with HLA-A*02:03 (setting [4]); 46.8 µM with HLA-A*02:06 (setting [4]); 7.72 µM with HLA-A*68:02 (setting [4]); at least 70 µM with HLA-A*02:01 [1] (setting [4]).

Consider DLDKVYEIL, for which the IC50 in the assay with HLA-A*02:02 (setting [4]) is 19.6 µM; with HLA-A*02:03 (setting [4]), 26.3 µM; in the assay with HLA-A*02:06 (setting [4]) it was 53.6 µM; with HLA-A*68:02 (setting [4]), at least 70 µM; with HLA-A*02:01 [1] (setting [4]) it was 29.7 µM.

For the sequence DMICCDSRIV, the IC50 in the assay with HLA-A*02:02 (setting [4]) stood at 11.3 µM; with HLA-A*02:03 (setting [4]), 6.08 µM; in the assay with HLA-A*02:06 (setting [4]) it was 18.9 µM; with HLA-A*68:02 (setting [4]), 13.3 µM; in the assay with HLA-A*02:01 [1] (setting [4]) it was 34.7 µM.

DVCKKNLDL: the IC50 stood at 25.4 µM in the assay with HLA-A*02:02 (setting [4]); 8.02 µM in the assay with HLA-A*02:03 (setting [4]); 16.3 µM in the assay with HLA-A*02:06 (setting [4]); 40.6 µM in the assay with HLA-A*68:02 (setting [4]); 19.5 µM with HLA-A*02:01 [1] (setting [4]).

In the case of DVEKEKFVAT, the IC50 with HLA-A*02:02 (setting [4]) was 37.5 µM; with HLA-A*02:03 (setting [4]) it was 54.8 µM; in the assay with HLA-A*02:06 (setting [4]), 69.8 µM; with HLA-A*68:02 (setting [4]), at least 70 µM; with HLA-A*02:01 [1] (setting [4]) it was 30.2 µM.

With VVIVENDNVI, the IC50 with HLA-A*02:02 (setting [4]) was 14.7 µM; in the assay with HLA-A*02:03 (setting [4]), 10.2 µM; with HLA-A*02:06 (setting [4]) it was 10.8 µM; with HLA-A*68:02 (setting [4]) it was 22.5 µM; with HLA-A*02:01 [2], 2.83 µM.
